Measurements published in IntAct's records for PubMed 23260655.

B1: Chromobox protein homolog 8 (Homo sapiens), Q9HC52 (parent)
chain: MELSAVGERVFAAEALLKRRIRKGRMEYLVKWKGWSQKYSTWEPEENILDARLLAAFEEREREMELYGPKKRGPKPKTFLLKAQAKAKAKTYEFRSDSARGIRIPYPGRSPQDLASTSRAREGLRNMGLSPPASSTSTSSTCRAEAPRDRDRDRDRDRERDRERERERERERERERERERGTSRVDDKPSSPGDSSKKRGPKPRKELPDPSQRPLGEPSAGLGEYLKGRKLDDTPSGAGKFPAGHSVIQLARRQDSDLVQCGVTSPSSAEATGKLAVDTFPARVIKHRAAFLEAKGQGALDPNGTRVRHGSGPPSSGGGLYRDMGAQGGRPSLIARIPVARILGDPEEESWSPSLTNLEKVVVTDVTSNFLTVTIKESNTDQGFFKEKR

Variants of: B1
Settings: with af9_mouse Mllt3, A2AM29
af9_mouse Mllt3, A2AM29, sequence (A2AM29 whole entry): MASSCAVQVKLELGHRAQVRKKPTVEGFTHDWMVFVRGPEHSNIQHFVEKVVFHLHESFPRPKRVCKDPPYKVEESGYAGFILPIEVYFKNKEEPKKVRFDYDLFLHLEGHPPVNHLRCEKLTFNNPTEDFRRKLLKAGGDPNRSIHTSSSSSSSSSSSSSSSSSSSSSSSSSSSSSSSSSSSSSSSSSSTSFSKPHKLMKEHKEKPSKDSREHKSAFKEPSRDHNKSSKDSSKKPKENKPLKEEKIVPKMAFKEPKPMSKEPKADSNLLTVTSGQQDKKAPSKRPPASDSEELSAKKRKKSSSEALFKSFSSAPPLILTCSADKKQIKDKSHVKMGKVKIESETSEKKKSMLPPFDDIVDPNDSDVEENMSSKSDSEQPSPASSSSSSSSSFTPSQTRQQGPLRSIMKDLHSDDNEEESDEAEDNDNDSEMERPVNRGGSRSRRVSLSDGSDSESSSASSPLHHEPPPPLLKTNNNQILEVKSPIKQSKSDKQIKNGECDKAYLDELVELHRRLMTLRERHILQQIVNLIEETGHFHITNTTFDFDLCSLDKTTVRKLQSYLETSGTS

Variant | effect of a mutation on the interaction
MELSAVGERVFAAEALLKRRIRKGRMEYLVKWKGWSQKYSTWEPEENILDARLLAAFEEREREMELYGPKKRGPKPKTFLLKAQAKAKAKTYEFRSDSARGIRIPYPGRSPQDLASTSRAREGLRNMGLSPPASSTSTSSTCRAEAPRDRDRDRDRDRERDRERERERERERERERERERGTSRVDDKPSSPGDSSKKRGPKPRKELPDPSQRPLGEPSAGLGEYLKGRKLDDTPSGAGKFPAGHSVIQLARRQDSDLVQCGVTSPSSAEATGKLAVDTFPARVIKHRAAFLEAKGQGALDPNGTRVRHGSGPPSSGGGLYRDMGAQGGRPSLIVRIPVARILGDPEEESWSPSLTNLEKVVVTDVTSNFLTVTIKESNTDQGFFKEKR [A335V] | increasing interaction strength
